Measurements published in the supplement of paper PMC11780869.

Tested on: Bacillus subtilis
Assay: cleaved RNA product abundance (RNA/gDNA barcode ratio) relative to median wild-type variant (ratio to wild type); higher = more accumulation of the downstream cleavage product
In short: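 Oligos with a 9% error rate were used to build barcoded, mutagenized RNase Y cleavage-site windows within truncated aprE or tetM reporter mRNAs, which were integrated into the B. subtilis chromosome. Cultures were grown in LB at 37°C between OD600 0.0003 and 0.3. Cleaved RNA was gel-selected, reverse transcribed and barcode-sequenced, as were genomic DNA barcodes, and UMIs were collapsed. Cleaved product abundance is the scaled RNA:gDNA barcode ratio, with the median construct carrying the unmutated site as reference.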

[1] = experiment (reporter, strain, medium): exp 2b: truncated aprE reporter, strain BJT200, cleavage site: cggR-gapA (positions -7 to +36 mutated)
[2] = experiment (reporter, strain, medium): exp 4a: truncated aprE reporter, strain BJT201 with 2% xylose (RNase J1 expressed), cleavage site: cggR-gapA (positions -7 to +36 mutated)
[3] = experiment (reporter, strain, medium): exp 8a: truncated aprE reporter, strain BJT201 with 2% xylose (RNase J1 expressed), cleavage site: glnRA (positions -5 to +31 mutated)
[4] = experiment (reporter, strain, medium): exp 6: tetM reporter, strain 168, cleavage site: cggR-gapA (positions -7 to +36 mutated)

Row | Sequence | cleaved RNA product abundance [1] | cleaved RNA product abundance [2] | other results
1 | ACAGACGAAGGAGCCGCAAAGAAGTTATTTAGGGATGAATAATCCGTCAATATAAATATCTCTCACTTATTTAAA | 0.169 | 0.247 | –
2 | ACAGACGAAGGAGCCGCATAGAAGTTATTAAGGAATGAATAATCCCTCAATATAAATATCTCTCACTTATTTAAA | 0.082 | 0.135 | –
3 | ACAGACGAAGGAGCCGCAAAGAAGTTATTAAGGGATGAATCATCCCTCAATATAAATAACTCTCACTTATTTAAA | – | 0.573 | –
4 | ACAGACGAAGGAGCCGCAAAGCAGTTATTAAGGGATGAATAATCGCTCAATATAAATATCTCTCACTTATTTAAA | 0.083 | – | –
5 | ACAGACGAAGGAGCCGCCAAGAAGTTATTAAGGGATTAATAATCCCTCAATATAAATATCTCTCACTTATTTAAA | – | 0.726 | –
6 | ACAGACGAAGGAGCCGCACAGAAGTTATTAAGGGATGAATAATCCCTCAATATAAAGATCTCTCACTTATTTAAA | – | 0.549 | –
7 | ACAGACGAAGGAGCCGCAAAGAAGTTATTAACGGATGAATAATCCCTCAACATAAATATCTCTCACTTATTTAAA | – | 0.172 | –
8 | CGACATGTCCCGCTTCTTTCATTAATCCGTTATCAACTGTTTTGCTTTATACATTTACCTTTTAAGAGGAGGAAT | – | – | cleaved RNA product abundance [3]: 0.202
9 | ACAGACGAAGGAGCCGCAAAGAAGTTATTAAGGTACGAATAATCCCTCAATATAAATATCTCTCACTTATTTAAA | 0.0971 | 0.106 | –
10 | ACAGACGAAGGAGCCGCAAAGAAATTATTAAGGGATTAATAATCCCTCAATATAAATATCTCTCACTTATTTAAA | 0.978 | 0.912 | –
11 | ACAGACGAAGGAGCCGCAAAGAAGTTATTTAGGGATGAACAATCCCTCAATATAAATATCTCTCACTTATTTAAA | – | 0.85 | –
12 | CGACATGTCCCGCTTCTTTCATTAATCCGTTAATAACTGTTTTGCTATATACATTTAACTTTTAAGAGGAGGAAT | – | – | cleaved RNA product abundance [3]: 0.205
13 | CGACATGTCCCGCTTCTTTCATTAATCCGTTACCAACTGTTTTGCTATATATATTTACCTTTTAAGAGGAGGAAT | – | – | cleaved RNA product abundance [3]: 0.212
14 | ACAGACGAAGGAGCCGCAAAGAAGTTATAAAGGGATGAATAAACCCTCAATATAAATATCTCTCACTTATTTAAA | 0.145 | 0.197 | –
15 | ACAGACGAAGGAGCCGCAATGAAGTTATTTAGGGATGAATAATCCCTCAATATAAATATCTCTCACTTATTTAAA | – | 0.738 | –
16 | ACAGACGAAGGAGCCGCTAAGAAGTTATTAAGGGTTGAATAATCCCTCAATATAAATATCTCTCACTTATTTAAA | – | 0.377 | –
17 | ACAGACGAAGGAGCCGCAAAGAAGTTATTAAGGGATGAATAATCCCTCACTATATATATCTCTCACTTATTTAAA | – | 0.319 | –
18 | CGACATGTCCCGCTTCTTTCATTATTGCGTTAGCAACTGTTTTGCTATATACATTTACCTTTTAAGAGGAGGAAT | – | – | cleaved RNA product abundance [3]: 1.54
19 | ACAGACGAAGGAGCCGCAAAGAAGTTATTTAGGGATGATTAATCCCTCAATATAAATATCTCTCACTTATTTAAA | – | 0.659 | –
20 | ACAGACGAAGGAGCCGCAAAGAAGTTATTAAGGGATTAATAATCCCTCAATATAAATATCTCTCACTTATTTAAA | 0.996 | 0.958 | cleaved RNA product abundance [4]: 1.09

Row | Sequence | cleaved RNA product abundance [1] | cleaved RNA product abundance [2] | other results
21 | ACAGACGAAGGAGCCGCAAAGAAGTTATTAAGGGATTAATAATCCCTCAATATATATATCTCTCACTTATTTAAA | – | 0.957 | –
22 | ACAGACGAAGGAGCCGCAAAGAAGTTATTAATGGATGAATAATCCCGCAATATAAATATCTCTCACTTATTTAAA | – | 0.144 | –
23 | ACAGACGAAGGAGCCGCAAAAAAGTTATTAATGGATGAATAATCCCTCAATATAAATATCTCTCACTTATTTAAA | 0.0715 | 0.149 | –
24 | ACAGACGAAGGAGCCGCAAAGAAGTTATTAAGGGATGAATAATCTCTCAATATAAATATTTCTCACTTATTTAAA | – | 0.948 | –
25 | ACAGACGAAGGAGCCGCAAAGAATTTATTTAGGAATGAATAATCCCTCAATATAAATATCTCTCACTTATTTAAA | – | 0.0547 | –
26 | ACAGACGAAGGAGCCGCATAGAAGTTATTAAGAGATGAATAATCCCTCAATATAAATATCTCTCACTTATTTAAA | – | 0.154 | –
27 | ACAGACGAAGGAGCCGCAAAGGAGTTATTAAGGGATGAATAATACCTCAATATAAATATCTCTCACTTATTTAAA | 0.131 | 0.192 | –
28 | ACAGACGAAGGAGCCGCAAAGAAGCTATTAAAGGATGAATAATCCCTCAATATAAATATCTCTCACTTATTTAAA | 0.111 | 0.144 | –
29 | CGACATGTCCCGCTTCTTTCATTAATCCATTAGCAACTGTTTTGCTATATACATTAACCTTTTAAGAGGAGGAAT | – | – | cleaved RNA product abundance [3]: 1.3
30 | CGACATGTCCCGCTTCTTTCATTAATCCGTTAGCAACTAGTTTGCTATATACATTTACCTTTTAAGAGGAGGAAT | – | – | cleaved RNA product abundance [3]: 1.29
31 | ACAGACGAAGGAGCCGCAAATGAGTTATTAAAGGATGAATAATCCCTCAATATAAATATCTCTCACTTATTTAAA | 0.181 | – | –
32 | ACAGACGAAGGAGCCGCAAAGAAGTTATTAAGGGATGAATAATTCCTCATTATAAATATCTCTCACTTATTTAAA | 0.177 | 0.306 | –
33 | ACAGACGAAGGAGCCGCAAAAAAGCTATTAAGGGATGAATAATCCCTCAATATAAATATCTCTCACTTATTTAAA | 0.392 | 0.855 | –
34 | CGACATGTCCCGCTTCTTTCATTAATCCGTTACCAACTGTTTTGCTATATACATTTCCCTTTTAAGAGGAGGAAT | – | – | cleaved RNA product abundance [3]: 0.127
35 | ACAGACGAAGGAGCCGCAAAGAAGTTATTAAGGGATTAATAATCCCTAAATATAAATATCTCTCACTTATTTAAA | 0.535 | 0.745 | –
36 | ACAGACGAAGGAGCCGCAAAGAAGTGATTAAGGGATGAATAATCCCTCAATATAAATAACTCTCACTTATTTAAA | – | 0.522 | –
37 | CGACATGTCCCGCTTCTTTCATTAATCCGTTAGCAACTGTTTTGCTATATATATTTACCTTTTAAGAGGAGGAAT | – | – | cleaved RNA product abundance [3]: 1.03
38 | ACAGACGAAGGAGCCGCAGAGAAGTTATTAAGTGATGAATAATCCCTCAATATAAATATCTCTCACTTATTTAAA | – | 0.161 | –
39 | CGACATGTCCCGCTTCTTTCATTAATCCGTTAGCAACTGTTTTGGTACATACATTTACCTTTTAAGAGGAGGAAT | – | – | cleaved RNA product abundance [3]: 0.119
40 | CGACATGTCCCGCTTCTTTCATTAATCCGTTATCACCTGTTTTGCTATATACATTTACCTTTTAAGAGGAGGAAT | – | – | cleaved RNA product abundance [3]: 0.198

Row | Sequence | cleaved RNA product abundance [1] | cleaved RNA product abundance [2] | other results
41 | ACAGACGAAGGAGCCGCAAAGAAGTTAATAAGGGATGAATAATCCCTCTATATAAATATCTCTCACTTATTTAAA | – | 0.39 | –
42 | ACAGACGAAGGAGCCGCAAAGAAGTTATTAAGCGATGAATAATCCCTGAATATAAATATCTCTCACTTATTTAAA | – | 0.072 | –
43 | ACAGACGAAGGAGCCGCAAAGAAGTTAGTAAGGGAAGAATAATCCCTCAATATAAATATCTCTCACTTATTTAAA | – | 0.302 | –
44 | ACAGACGAAGGAGCCGCAAAGAAGTTATTAGAGGATGAATAATCCCTCAATATAAATATCTCTCACTTATTTAAA | – | 0.301 | –
45 | ACAGACGAAGGAGCCGCAAAGAAGTTATTAAGGGATGAAAAATCCTTCAATATAAATATCTCTCACTTATTTAAA | 0.355 | 0.505 | –
46 | ACAGACGAAGGAGCCGCAAAAAAGTTATTAAGCGATGAATAATCCCTCAATATAAATATCTCTCACTTATTTAAA | 0.091 | 0.123 | –
47 | ACAGACGAAGGAGCCGCAAAGAAGTTATTAAGGGAAGAATAATCCCTCAATATAATTATCTCTCACTTATTTAAA | 0.292 | 0.314 | –
48 | CGACATGTCCCGCTTCTTTCATTAATCCGTTAGCAACTATTTTGCTATATACATTTAGCTTTTAAGAGGAGGAAT | – | – | cleaved RNA product abundance [3]: 1.16
49 | ACAGACGAAGGAGCCGCAAAGAAGTTATTAACGGATGAATAATCCCTGAATATAAATATCTCTCACTTATTTAAA | – | 0.107 | –
50 | ACAGACGAAGGAGCCGCAAAGAAGTTATTAAGGGATGTATAATCCCTGAATATAAATATCTCTCACTTATTTAAA | – | 0.461 | –
51 | ACAGACGAAGGAGCCGCAAAGAAGTTATTAAGCGATGAATAATCGCTCAATATAAATATCTCTCACTTATTTAAA | 0.561 | 0.726 | –
52 | ACAGACGAAGGAGCCGCTAAGAAGTTATTAAGGGATGAATAATCACTCAATATAAATATCTCTCACTTATTTAAA | – | 0.129 | –
53 | ACAGACGAAGGAGCCGCAAAGAAGTTATTAAGGGATGAATAATCCCTTTATATAAATATCTCTCACTTATTTAAA | 1.14 | 0.977 | –
54 | CGACATGTCCCGCTTCTTTCATTAATCCGATAGCAACTGTTTTGTTATATACATTTACCTTTTAAGAGGAGGAAT | – | – | cleaved RNA product abundance [3]: 0.378
55 | ACAGACGAAGGAGCCGCAAAGAAGTTATTAAGGGATGAATAATCCCTCAATACAAATATCTCTCACTTATTTAAA | 0.117 | 0.0683 | cleaved RNA product abundance [4]: 0.23
56 | ACAGACGAAGGAGCCGCACAGAAGTTATTAAGGGATGAATAATCCCTCAATAAAAATATCTCTCACTTATTTAAA | – | 0.116 | –
57 | CGACATGTCCCGCTTCTTTCATTAATCCGTTAATAACTGTTTTGCTATATACATTTACCTTTTAAGAGGAGGAAT | – | – | cleaved RNA product abundance [3]: 0.262
58 | ACAGACGAAGGAGCCGCAAAGAAGGTATTAAGGGATGAATAATCCCTGAATATAAATATCTCTCACTTATTTAAA | – | 1.45 | –
59 | ACAGACGAAGGAGCCGCAAAGAAGATCTTAAGGGATGAATAATCCCTCAATATAAATATCTCTCACTTATTTAAA | – | 0.166 | –
